The text below walks through data of patent US20180245067A1 (UNIVERSITY OF LEEDS, published 2018).

Assay [1] addresses T1, papain (UniProt P00784 134-345).
T1 sequence (looked up): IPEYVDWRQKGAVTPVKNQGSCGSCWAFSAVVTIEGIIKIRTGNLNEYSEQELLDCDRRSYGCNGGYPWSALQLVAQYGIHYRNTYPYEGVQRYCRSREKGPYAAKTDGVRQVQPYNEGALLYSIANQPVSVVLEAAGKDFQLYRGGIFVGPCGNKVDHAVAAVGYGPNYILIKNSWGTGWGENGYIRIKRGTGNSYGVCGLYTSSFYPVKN
Nature of the assay: cell-based or functional assay.

In assay [2] the target is T1, papain. Nature of the assay: SPR (BIACORE 3000), cystatin on NTA chip via His tag, papain as analyte, 1:1 Langmuir fit. In general terms: Surface plasmon resonance follows binding to a sensor surface in real time, without labels.
For assay [3], the target named is T2, yeast Small Ubiquitin-like Modifier protein (SUMO) (yeast, UniProt Q12306 1-98 = SUMO).
T2 construct: also called ySUMO; yeast SUMO
T2 sequence (Q12306 1-98 limits assumed): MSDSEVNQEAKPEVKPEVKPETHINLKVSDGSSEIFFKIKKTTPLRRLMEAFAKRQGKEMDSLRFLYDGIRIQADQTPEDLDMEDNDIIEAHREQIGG
Put plainly: phage ELISA on biotinylated ySUMO. Background: ELISA stands for enzyme-linked immunosorbent assay.

Assay [4] addresses T3, human SUMO1 (human, UniProt P63165 1-97).
T3 construct: also called hSUMO1
Put plainly: ELISA and Western blot with biotinylated Adhiron.

Assay [5] addresses T2, yeast Small Ubiquitin-like Modifier …. Put plainly: BioLayer Interferometry (BLitz), biotinylated Adhiron on streptavidin biosensor, global fit. For orientation: Biolayer interferometry detects binding as a change in optical thickness at a sensor tip.

Where a chain is given by its changes, count along the chain named.

T3 sequence (P63165 1-97 limits assumed): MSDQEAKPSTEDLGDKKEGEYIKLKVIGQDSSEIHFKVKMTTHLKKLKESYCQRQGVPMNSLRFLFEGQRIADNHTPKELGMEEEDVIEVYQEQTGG

B1: OSA-IΔD86 (other)
chain: MSSDGGPVLGGVEPVGNENDLHLVDLARFAVTEHNKKANSLLEFEKLVSVKQQVVAGTLYYFTIEVKEGDAKKLYEAKVWEKPWMFKELQEFKPVDASANARGSHHHHHH
notes: also called OSA1ΔD86; modified oryzacystatin lacking residue Asp86
B1: in assay [1], the “IC50, papain inhibition assay with pGlu-Phe-Leu-p-nitroanilide” value is 1.8e-07 M. In addition, the Ka in assay [2] came to 2.1e+08 M⁻¹.

B2: Ad-ySUMO 1 (designed binder)
chain: NSLEIEELARFAVDEHNKKENALLEFVRVVKAKEQWDLTGNVDTTMYYLTLEAKDGGKKKLYEAKVWVKWDDWGERFWNFKELQEFKPVGDA
notes: also called clone 1
For the molecule B2, in assay [3], the binding result is recorded as “binds”.

B3: Ad-ySUMO 24 (designed binder)
chain: NSLEIEELARFAVDEHNKKENALLEFVRVVKAKEQWEDFQTHWETMYYLTLEAKDGGKKKLYEAKVWVKDVGQLLSGINFKELQEFKPVGDA
notes: also called clone 24
Consider B3, for which the binding result in assay [3] is on record as “binds”.

B4: Ad-ySUMO 18 (designed binder)
chain: NSLEIEELARFAVDEHNKKENALLEFVRVVKAKEQWIDRGQYWDTMYYLTLEAKDGGKKKLYEAKVWVKIHNGYTIMDNFKELQEFKPVGDA
notes: also called clone 18
B4: in assay [3], the binding result was “binds”.

B5: CEWC (other, chicken)
chain: SEDRSRLLGAPVPVDENDEGLQRALQFAMAEYNRASNDKYSSRVVRVISAKRQLVSGIKYILQVEIGRTTCPKSSGDLQSCEFHDEPEMAKYTTCTFVVYSIPWLNQIKLLESKCQRGSHHHHHH
notes: also called chicken egg white cystatin
What is called Kd is a measure of binding affinity in units of concentration. A lower Kd goes with a tighter complex. Usually kon stands for the rate constant with which the complex forms. In assay [2], B5 displayed a Ka of 2.6e+09 M⁻¹, a Kd of 0.39 nM and an on-rate (kon) of 1.3e+06 M⁻¹ s⁻¹.

B6: Ad-ySUMO 3 (designed binder)
chain: NSLEIEELARFAVDEHNKKENALLEFVRVVKAKEQINLMMVSPMTMYYLTLEAKDGGKKKLYEAKVWVKGIQQNPSHANFKELQEFKPVGDA
notes: also called clone 3
As to B6, in assay [3], the binding result is “binds”.

B7: Ad-ySUMO 13 (designed binder)
chain: NSLEIEELARFAVDEHNKKENALLEFVRVVKAKEQWDLTTPINITMYYLTLEAKDGGKKKLYEAKVWVKYEDYQTPMYNFKELQEFKPVGDA
notes: also called clone 13
Turning to B7, in assay [3], the binding result is listed as “binds”.

B8: Ad-ySUMO 23 (designed binder)
chain: NSLEIEELARFAVDEHNKKENALLEFVRVVKAKEQIDLTQPHDSTMYYLTLEAKDGGKKKLYEAKVWVKPHDELNWNMNFKELQEFKPVGDA
notes: also called clone 23
Turning to B8, in assay [3], the binding result is “binds”.

B9: Ad-ySUMO 22 (designed binder)
chain: B8 chain with P41S, H42F, S44M, H71I, E73S, L74N, N75F, W76T, N77G, M78T
notes: also called clone 22
Take B9: the binding result in assay [4] is “no binding”. In addition, the equilibrium dissociation constant (Kd) in assay [5] was 9 nM.

B10: Ad-ySUMO 15 (designed binder)
chain: B8 chain with P70Y, H71E, D72E, E73D, L74E, N75Y, N77R
notes: also called clone 15; Yeast Sumo Adhiron 15
On to B10, for which the binding result in assay [4] was “no binding”. Besides, the affinity in assay [5], expressed as Kd, was 2.4 nM.

B11: Ad-ySUMO 20 (designed binder)
chain: NSLEIEELARFAVDEHNKKENALLEFVRVVKAKEQIDLTGQWLFTMYYLTLEAKDGGKKKLYEAKVWVKPLWQYDAQYNFKELQEFKPVGDA
notes: also called clone 20
On to B11, for which the binding result in assay [4] is “no binding”. In assay [5], this molecule returned a Kd of 14.2 nM.

B12: Ad-ySUMO 7 (designed binder)
chain: NSLEIEELARFAVDEHNKKENALLEFVRVVKAKEQWVDMDYYWRTMYYLTLEAKDGGKKKLYEAKVWVKMDEIWAEYANFKELQEFKPVGDA
notes: also called clone 7
Turning to B12, in assay [3], the binding result is “binds”.

B13: Ad-ySUMO 9 (designed binder)
chain: NSLEIEELARFAVDEHNKKENALLEFVRVVKAKEQIDLTDVWIDTMYYLTLEAKDGGKKKLYEAKVWVKGLMTQTNSMNFKELQEFKPVGDA
notes: also called clone 9
In the case of B13, the binding result in assay [3] was “binds”.

B14: Ad-ySUMO 12 (designed binder)
chain: NSLEIEELARFAVDEHNKKENALLEFVRVVKAKEQWYERSENWDTMYYLTLEAKDGGKKKLYEAKVWVKRDYGFTLVPNFKELQEFKPVGDA
notes: also called clone 12
As to B14, the binding result in assay [3] is given as “binds”.

B15: Ad-ySUMO 19 (designed binder)
chain: NSLEIEELARFAVDEHNKKENALLEFVRVVKAKEQWSEADNDWHTMYYLTLEAKDGGKKKLYEAKVWVKLDLETWQHFNFKELQEFKPVGDA
notes: also called clone 19
For B15, the binding result in assay [3] is “binds”.

B16: PHYTC57 (designed binder)
chain: MAALLGGVRAVPGNENSLEIEELARFAVDEHNKKENALLEFVRVVKAKEQVVAGTMYYLTLEAKDGGKKKLYEAKVWVKPWETFKELQEFKPVGDARGSHHHHHH
notes: also called consensus phytocystatin; consensus cystatin
On to B16, for which the “IC50, papain inhibition assay with pGlu-Phe-Leu-p-nitroanilide” value in assay [1] amounted to 4.6e-08 M. In assay [2], this molecule yielded a Ka of 1.6e+11 M⁻¹, a Kd of 0.0063 nM and a kon of 350000 M⁻¹ s⁻¹.

B17: Ad-ySUMO 6 (designed binder)
chain: NSLEIEELARFAVDEHNKKENALLEFVRVVKAKEQIDLTEWQDRTMYYLTLEAKDGGKKKLYEAKVWVKPEPIHSHHSNFKELQEFKPVGDA
notes: also called clone 6
B17: in assay [3], the binding result was “binds”.

B18: Ad-ySUMO 17 (designed binder)
chain: NSLEIEELARFAVDEHNKKENALLEFVRVVKAKEQWYLLDVMDDTMYYLTLEAKDGGKKKLYEAKVWVKHDRRYKQAENFKELQEFKPVGDA
notes: also called clone 17
In the case of B18, the binding result in assay [3] is on record as “binds”.

B19: Ad-ySUMO 10 (designed binder)
chain: NSLEIEELARFAVDEHNKKENALLEFVRVVKAKEQIIIHENDADTMYYLTLEAKDGGKKKLYEAKVWVKGIMDGLNKYNFKELQEFKPVGDA
notes: also called clone 10
Regarding B19, the binding result in assay [4] is “no binding”. In assay [5], this molecule had a Kd of 11.5 nM.

B20: Ad-ySUMO 4 (designed binder)
chain: NSLEIEELARFAVDEHNKKENALLEFVRVVKAKEQIDLTHSLNYTMYYLTLEAKDGGKKKLYEAKVWVKGLTNEIQKMNFKELQEFKPVGDA
notes: also called clone 4
Consider B20, for which the binding result in assay [3] is on record as “binds”.

B21: Ad-ySUMO 5 (designed binder)
chain: B20 chain
notes: also called clone 5
Consider B21, for which the binding result in assay [3] is “binds”.

B22: Ad-ySUMO 2 (designed binder)
chain: NSLEIEELARFAVDEHNKKENALLEFVRVVKAKEQIDLTNSFASTMYYLTLEAKDGGKKKLYEAKVWVKDINQYWHSMNFKELQEFKPVGDA
notes: also called clone 2
For the molecule B22, in assay [3], the binding result is listed as “binds”.

B23: Ad-ySUMO 14 (designed binder)
chain: NSLEIEELARFAVDEHNKKENALLEFVRVVKAKEQWFDDEYDWITMYYLTLEAKDGGKKKLYEAKVWVKDYAATDLYWNFKELQEFKPVGDA
notes: also called clone 14
B23: in assay [3], the binding result is recorded as “binds”.

B24: Ad-ySUMO 8 (designed binder)
chain: NSLEIEELARFAVDEHNKKENALLEFVRVVKAKEQIDLTQTEIVTMYYLTLEAKDGGKKKLYEAKVWVKEPGIIPIVHNFKELQEFKPVGDA
notes: also called clone 8
Turning to B24, the binding result in assay [3] was “binds”.
